Data taken from PMC8455074 (Cancer cell, 2020).
Ends that are not written are not given here. * marks the point of attachment. Biotin = O=C1N[C@H]2[C@H](CS[C@H]2CCCCC(=O)*)N1

T1: His-tagged CXorf67, recombinant (human, UniProt Q86X51 1-503)
T1 sequence (looked up): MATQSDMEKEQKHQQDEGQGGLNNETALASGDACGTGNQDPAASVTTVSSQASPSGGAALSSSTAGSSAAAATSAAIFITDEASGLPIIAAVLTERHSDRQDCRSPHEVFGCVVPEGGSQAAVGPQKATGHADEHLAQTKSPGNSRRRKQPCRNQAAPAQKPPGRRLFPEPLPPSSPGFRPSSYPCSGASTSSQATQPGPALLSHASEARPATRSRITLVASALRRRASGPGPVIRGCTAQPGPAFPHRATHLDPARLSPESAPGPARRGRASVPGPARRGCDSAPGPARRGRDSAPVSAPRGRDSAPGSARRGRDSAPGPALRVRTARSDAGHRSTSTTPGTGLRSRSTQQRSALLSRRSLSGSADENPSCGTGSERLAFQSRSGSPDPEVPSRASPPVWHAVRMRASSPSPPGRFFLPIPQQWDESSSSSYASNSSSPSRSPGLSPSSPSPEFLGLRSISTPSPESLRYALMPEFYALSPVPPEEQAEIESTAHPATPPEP

B1: GST-tagged PALB2 WD40 domain (domain or fragment, UniProt Q86YC2 853-1186, looked up)
chain: GNLQLVSELKNPSGSCSVDVSAMFWERAGCKEPCIITACEDVVSLWKALDAWQWEKLYTWHFAEVPVLQIVPVPDVYNLVCVALGNLEIREIRALFCSSDDESEKQVLLKSGNIKAVLGLTKRRLVSSSGTLSDQQVEVMTFAEDGGGKENQFLMPPEETILTFAEVQGMQEALLGTTIMNNIVIWNLKTGQLLKKMHIDDSYQASVCHKAYSEMGLLFIVLSHPCAKESESLRSPVFQLIVINPKTTLSVGVMLYCLPPGQAGRFLEGDVKDHCAAAILTSGTIAIWDLLLGQCTALLPPVSDQHWSFVKWSGTDSHLLAGQKDGNIFVYHYS

How the values were obtained:
[1] = target: B1; assay: pull-down
[2] = target: T1, His-tagged CXorf67, recombinant; assay: pull-down

| binding result [1] | binding result [2] | Binder |
| --- | --- | --- |
| binds | – | Biotin-GGPIPQQWDESSSSS [biotinylated WT C67 (420-432) peptide] |
| – | binds | B1 |
